Data: the RNAGym collection of RNA variant scans (doi:10.7554/elife.80360)

B1: CPEB3 Ribozyme (parent)
chain: GGGGGCCACAGCAGAAGCGUUCACGUCGCGGCCCCUGUCAGAUUCUGGUGAAUCUGCGAAUUCUGCUGU

Variants of: B1
Assay: self-cleavage, relative activity (ratio to wild type); higher = more cleavage; co-transcriptional
GGGGGCCACAGCAGAAGCGUUCACGUCGCGGCCACUGUCAGAUUCUGGUGAAUCUGCGAAUUCUGCAGU [C34A U67A] gave a self-cleavage of 0.883.
GGGGGCCACAGCAGAAGCGUUCACGUCGCGGCCACUGUCAGAUUCUGGUGAAUCUGCGAAUUCUGCGGU [C34A U67G] gave a self-cleavage of 0.903.
GGGGGCCACAGCAGAAGCGUUCACGUCGCGGCCACUGUCAGAUUCUGGUGAAUCUGCGAAUUCUGCCGU [C34A U67C] showed a self-cleavage of 0.938.
Variant GGGGGCCACAGCAGAAGCGUUCACGUCGCGGCCGCUGUCAGAUUCUGGUGAAUCUGCGAAUUCUGCUGG [C34G U69G] has a self-cleavage of 0.926.
Variant GGGGGCCACAGCAGAAGCGUUCACGUCGCGGCCACUGUCAGAUACUGGUGAAUCUGCGAAUUCUGCUGU [C34A U44A] has a self-cleavage of 0.511.
With GGGGGCCACAGCAGAAGCGUUCACGUCGCGGCCACUGUCAGACUCUGGUGAAUCUGCGAAUUCUGCUGU [C34A U43C] the self-cleavage was 0.496.
Variant GGGGGCCACAGCAGAAGCGUUCACGUCGCGGCCGCUGGCAGAUUCUGGUGAAUCUGCGAAUUCUGCUGU [C34G U38G] has a self-cleavage of 0.202.
In the case of GGGGGCCACAGCAGAAGCGUUCACGUCGCGGCCGCUGCCAGAUUCUGGUGAAUCUGCGAAUUCUGCUGU [C34G U38C], the self-cleavage is reported as 0.441.
GGGGGCCACAGCAGAAGCGUUCACGUCGCGGCCGCUGUCAGAUUCUGGUGAAUCUGCGAAUUAUGCUGU [C34G C63A] gave a self-cleavage of 0.424.
GGGGGCCACAGCAGAAGCGUUCACGUCGCGGCCGCUGUCAGAUUCUGGUGAAUCUGCGAAUUUUGCUGU [C34G C63U] gave a self-cleavage of 0.666.
GGGGGCCACAGCAGAAGCGUUCACGUCGCGGCCGCUGUCAGAUUCUGGUGAAUCUGUGAAUUCUGCUGU [C34G C57U] gave a self-cleavage of 0.348.
For GGGGGCCACAGCAGAAGCGUUCACGUCGCGGCCGCUGUCAGAUUCUGGUGAAUCUGAGAAUUCUGCUGU [C34G C57A], the self-cleavage was 0.311.
GGGGGCCACAGCAGAAGCGUUCACGUCGCGGCCACUGUCAGAUUCUGGUGAAUCUGCGAAUUCUGAUGU [C34A C66A] gave a self-cleavage of 0.634.
Work on GGGGGCCACAGCAGAAGCGUUCACGUCGCGGCCACUGUAAGAUUCUGGUGAAUCUGCGAAUUCUGCUGU [C34A C39A] yielded a self-cleavage of 0.346.
Variant GGGGGCCACAGCAGAAGCGUUCACGUCGCGGCCUCUGUCAGAUUCUGGUGAGUCUGCGAAUUCUGCUGU [C34U A52G] has a self-cleavage of 1.01.
For GGGGGCCACAGCAGAAGCGUUCACGUCGCGGCCGCUGUCAGAUUCUGGUGAAUCUGCGAAGUCUGCUGU [C34G U61G], the self-cleavage was 0.311.
Work on GGGGGCCACAGCAGAAGCGUUCACGUCGCGGCCGCUGUCAGAUUCUGGUGAAUCUGCGAAAUCUGCUGU [C34G U61A] yielded a self-cleavage of 0.458.
Work on GGGGGCCACAGCAGAAGCGUUCACGUCGCGGCCACGGUCAGAUUCUGGUGAAUCUGCGAAUUCUGCUGU [C34A U36G] yielded a self-cleavage of 0.316.
GGGGGCCACAGCAGAAGCGUUCACGUCGCGGCCACCGUCAGAUUCUGGUGAAUCUGCGAAUUCUGCUGU [C34A U36C] showed a self-cleavage of 0.568.
In the case of GGGGGCCACAGCAGAAGCGUUCACGUCGCGGCCGCUGUCAGAUUCCGGUGAAUCUGCGAAUUCUGCUGU [C34G U46C], the self-cleavage is reported as 0.625.
GGGGGCCACAGCAGAAGCGUUCACGUCGCGGCCGCUGUCAGAUACUGGUGAAUCUGCGAAUUCUGCUGU [C34G U44A] showed a self-cleavage of 0.579.
In the case of GGGGGCCACAGCAGAAGCGUUCACGUCGCGGCCACUGUCAGAUUAUGGUGAAUCUGCGAAUUCUGCUGU [C34A C45A], the self-cleavage is reported as 0.528.
For GGGGGCCACAGCAGAAGCGUUCACGUCGCGGCCACUGUCAGAUUGUGGUGAAUCUGCGAAUUCUGCUGU [C34A C45G], the self-cleavage was 0.427.
GGGGGCCACAGCAGAAGCGUUCACGUCGCGGCCUCUGUCAGAUUCUGGUGAAUCUGCGAAUUAUGCUGU [C34U C63A] showed a self-cleavage of 0.869.
GGGGGCCACAGCAGAAGCGUUCACGUCGCGGCCUCUGUCAGAUUCUGGUGAAUCUGCGAAUUUUGCUGU [C34U C63U] gave a self-cleavage of 1.
For GGGGGCCACAGCAGAAGCGUUCACGUCGCGGCCGCUGUCAGAUUCUGGUGAAUCUGCGCAUUCUGCUGU [C34G A59C], the self-cleavage was 0.291.
In the case of GGGGGCCACAGCAGAAGCGUUCACGUCGCGGCCGCUGUCAGAUUCUGGUGACUCUGCGAAUUCUGCUGU [C34G A52C], the self-cleavage is reported as 0.618.
In the case of GGGGGCCACAGCAGAAGCGUUCACGUCGCGGCCGCUGUCAGAUUCUGGUGAGUCUGCGAAUUCUGCUGU [C34G A52G], the self-cleavage is reported as 0.771.
Variant GGGGGCCACAGCAGAAGCGUUCACGUCGCGGCCGCUGUCAGAUUCUGGUGAAUCUGCGAAUUCUACUGU [C34G G65A] has a self-cleavage of 0.58.
Variant GGGGGCCACAGCAGAAGCGUUCACGUCGCGGCCACUGUCAGAUUCUGGUGAAUAUGCGAAUUCUGCUGU [C34A C54A] has a self-cleavage of 0.408.
GGGGGCCACAGCAGAAGCGUUCACGUCGCGGCCACUGUCAGAUUCUGGUGAAUGUGCGAAUUCUGCUGU [C34A C54G] showed a self-cleavage of 0.38.
In the case of GGGGGCCACAGCAGAAGCGUUCACGUCGCGGCCUCUGUCAGAUUAUGGUGAAUCUGCGAAUUCUGCUGU [C34U C45A], the self-cleavage is reported as 0.946.
In the case of GGGGGCCACAGCAGAAGCGUUCACGUCGCGGCCGCUGUCAGAUUCUGGUGAAUCCGCGAAUUCUGCUGU [C34G U55C], the self-cleavage is reported as 0.327.
Variant GGGGGCCACAGCAGAAGCGUUCACGUCGCGGCCGCUGUCAGAUUCUGGUGAAUCAGCGAAUUCUGCUGU [C34G U55A] has a self-cleavage of 0.386.
GGGGGCCACAGCAGAAGCGUUCACGUCGCGGCCGCUGUCAGAUUCUGGUGAAUCGGCGAAUUCUGCUGU [C34G U55G] gave a self-cleavage of 0.475.
For GGGGGCCACAGCAGAAGCGUUCACGUCGCGGCCACUGUCAGAUUCUGGUGAAUCUGCGAAGUCUGCUGU [C34A U61G], the self-cleavage was 0.426.
With GGGGGCCACAGCAGAAGCGUUCACGUCGCGGCCACUGUCAGAUUCUGAUGAAUCUGCGAAUUCUGCUGU [C34A G48A] the self-cleavage was 0.862.
Work on GGGGGCCACAGCAGAAGCGUUCACGUCGCGGCCACUGUCAGAUUCUGGUGAAUCUGCGAAUUCUGCUGC [C34A U69C] yielded a self-cleavage of 0.992.
GGGGGCCACAGCAGAAGCGUUCACGUCGCGGCCACUGUCAGAUUCUGGUGAAUCAGCGAAUUCUGCUGU [C34A U55A] showed a self-cleavage of 0.529.
